Laboratory results from patent publication US20260116966A1 (KEYMED BIOSCIENCES CHENGDU, published 2026).

T1: Cynomolgus GPRC5D (Cynomolgus, UniProt Q9NZD1 1-343 (human entry))
T1 construct: Full length, on stably transfected cells (HEK293-cyGPRC5D, CHO-cyGPRC5D); also called cyGPRC5D
T1 chain: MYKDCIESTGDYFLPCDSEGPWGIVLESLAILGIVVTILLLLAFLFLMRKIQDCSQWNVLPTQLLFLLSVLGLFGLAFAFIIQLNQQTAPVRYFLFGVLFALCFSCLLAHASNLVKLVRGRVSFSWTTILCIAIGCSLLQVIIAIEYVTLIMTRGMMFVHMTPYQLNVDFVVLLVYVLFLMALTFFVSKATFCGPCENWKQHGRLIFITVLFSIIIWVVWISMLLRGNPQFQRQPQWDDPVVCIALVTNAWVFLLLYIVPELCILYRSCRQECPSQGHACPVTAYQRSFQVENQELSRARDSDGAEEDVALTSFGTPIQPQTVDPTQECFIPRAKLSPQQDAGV


Experiments:
human GPRC5D [1] = biological target: T2, human GPRC5D (human, UniProt Q9NZD1 1-345); experiment: cell-based or functional assay
human GPRC5D [2] = biological target: T2, human GPRC5D; experiment: flow cytometry, MM.1R cells
Experimental: The cell suspension was adjusted to a concentration of 5×10⁵ cells/mL, and 100 μL per well was added to a 96-well U-shaped plate, centrifuged at 300 g for 5 min. The supernatant was discarded. 100 μL per well of serially diluted antibody was added (initial concentration: 200 nM, 3-fold dilution, 10 gradients), and incubated at 4° C. for 60 min. The primary antibody was washed away, and 50 μL/well Alexa Fluro647 labeled goat anti-human IgG FC (1:300 dilution) was added, and incubated for 20 min. After washing once, 50 μL/well of PI was added, incubated for 5 min, and detected by flow cytometry.

human GPRC5D [3] = biological target: T2, human GPRC5D; experiment: flow cytometry on CHO-hGPRC5D cells
Experimental: (§1) The binding of the antibodies to human and Cynomolgus GPRC5D stably transfected cells was detected by flow cytometry. […] Then, 100 μl/well of the cell suspension was added to a 96-well U-shaped plate, and centrifuged at 300 g for 5 min. The supernatant was discarded. 100 μL per well of serially diluted antibody was added (initial concentration: 200 nM, 3-fold dilution, 12 gradients), and incubated at 4° C. for 45 min. The secondary antibody 50 μL/well of Alexa Fluro647 labeled goat anti-human IgG Fc (1:300 dilution) was added, incubated on ice for 45 min, and detected by flow cytometry.

Cynomolgus GPRC5D = biological target: T1, Cynomolgus GPRC5D; experiment: flow cytometry on CHO-cyGPRC5D cells
Experimental: as §1

T2 sequence (Q9NZD1 whole entry): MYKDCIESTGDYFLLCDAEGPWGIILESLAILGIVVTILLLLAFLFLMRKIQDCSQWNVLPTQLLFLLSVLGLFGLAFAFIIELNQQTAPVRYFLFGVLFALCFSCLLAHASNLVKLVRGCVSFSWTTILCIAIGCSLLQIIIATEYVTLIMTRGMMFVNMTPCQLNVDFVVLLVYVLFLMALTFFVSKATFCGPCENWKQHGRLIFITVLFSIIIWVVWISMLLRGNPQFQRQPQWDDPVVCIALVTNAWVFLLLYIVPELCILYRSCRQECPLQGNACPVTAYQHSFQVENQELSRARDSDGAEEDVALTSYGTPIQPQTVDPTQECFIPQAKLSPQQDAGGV

Binder | TDCC EC50 (pM), MM.1R (human GPRC5D [1]) | EC50 (human GPRC5D [2]) | Maximum fluorescence intensity (MFI, 200 nM) (human GPRC5D [2]) | binding result (human GPRC5D [3]) | binding result (Cynomolgus GPRC5D) | EC50 (read off the curve) (human GPRC5D [3])
4D3 × CD3 GPRC5D×CD3 κλ bispecific antibody (bispecific antibody, human IgG4, V domains shown, Human IgG4 knob-into-hole Fc with Ser228Pro, Leu235Glu, Pro329Ala) VH 1: QVQLVQSGAEVKKPGSSVKVSCKASGYTFTNFPIEWMREAPGQGLEWMGNFHPYNDVTKYNEKFQGRVTLTVDKSSSTVYMELSSLRSEDTAVYYCALITRGYWGQGTLVTVSS VL 1: DIVMTQSPDSLAVSLGERATINCKSSQSLLYSRNQKNSLAWYQKKPGQPPKLLIYWASTRESGVPDRFSGSGSGTDFTLTISSLQAEDVAVYYCQQYYSYPLTFGQGTKLEIK VH 2: EVQLVESGGGLVQPGGSLRLSCAASGFTFNTYAMNWVRKAPGKGLEWVGRIRSKYNNYATYYADSVKDRFTISRDDSKNSLYLQMNSLKTEDTAVYYCVRHGNFGNSYVSWFAYWGQGTLVTVSS VL 2: QAVVTQEPSLTVSPGGTVTLTCRSSTGAVTTSNYANWVQEKPGQAPRGLIGGTNKRAPWTPARFSGSLLGGKAALTITGAQAEDEAEYYCVLWYSNLWVFGGGTKLTVL | 6.18 pM | 10.7 nM | 110000 MFI |  |  | 
15D1 × CD3 GPRC5D×CD3 κλ bispecific antibody (bispecific antibody, human IgG4, V domains shown, Human IgG4 knob-into-hole Fc with Ser228Pro, Leu235Glu, Pro329Ala) VH 1: QVQLVQSGAEVKKPGSSVKVSCKASGYTFTNYVMHWVKEKPGQGLEWMGYINPYNDGTKYNEKFQGRVTLTSDKSSNTAYMELSSLRSEDTAVYYCARGGVRRYFDYWGQGTLVTVSS VL 1: DIQMTQSPSSLSASVGDRVTITCRASQDIGSNLNWLQKEPGKAPKRLIYATSSLDSGVPSRFSGSRSGSDYTLTISSLQPEDFATYYCLQYASFPYTFGQGTKLEIK VH 2: EVQLVESGGGLVQPGGSLRLSCAASGFTFNTYAMNWVRKAPGKGLEWVGRIRSKYNNYATYYADSVKDRFTISRDDSKNSLYLQMNSLKTEDTAVYYCVRHGNFGNSYVSWFAYWGQGTLVTVSS VL 2: QAVVTQEPSLTVSPGGTVTLTCRSSTGAVTTSNYANWVQEKPGQAPRGLIGGTNKRAPWTPARFSGSLLGGKAALTITGAQAEDEAEYYCVLWYSNLWVFGGGTKLTVL | 96.5 pM |  | 12800 MFI |  |  | 
8D1 × CD3 GPRC5D×CD3 κλ bispecific antibody (bispecific antibody, human IgG4, V domains shown, Human IgG4 knob-into-hole Fc with Ser228Pro, Leu235Glu, Pro329Ala) VH 1: QVQLVQSGAEVKKPGSSVKVSCKASGYTFTSYYMYWVREAPGQGLEWMGGINPSNGGTKYNEKFQGRVTLTVDKSSSTAYMELSSLRSEDTAVYYCTRGSLRSYYYAMDYWGQGTLVTVSS VL 1: DIQMTQSPSSLSASVGDRVTITCQASQDISNYLNWYQKKPGKAPKLLIYYTSRLHSGVPSRFSGSGSGTDYTFTISSLQPEDIATYFCQQGYSLPYTFGQGTKLEIK VH 2: EVQLVESGGGLVQPGGSLRLSCAASGFTFNTYAMNWVRKAPGKGLEWVGRIRSKYNNYATYYADSVKDRFTISRDDSKNSLYLQMNSLKTEDTAVYYCVRHGNFGNSYVSWFAYWGQGTLVTVSS VL 2: QAVVTQEPSLTVSPGGTVTLTCRSSTGAVTTSNYANWVQEKPGQAPRGLIGGTNKRAPWTPARFSGSLLGGKAALTITGAQAEDEAEYYCVLWYSNLWVFGGGTKLTVL | 32.9 pM | 3.34 nM | 89000 MFI |  |  | 
anti-GPRC5D chimeric antibody 6H1 (antibody, V domains shown) VH: QAYLQQSGAELVRSGASVKMSCKASGYTFTSYNMHWVKQTPGQGLEWIGYIYPGNGGTNYNQKFKGKATLTADTSSSTAYMQISSLTSEDSAVYFCARGYGYRYWYFDVWGTGTTVTVSS VL: QIVLTQSPAIMSASPGEKVTMTCSASSSVSYMHWYQQKSGTSPKRWIYDTSKLASGVPARFSGSGSGTSYSLTISSMEAEDAATYYCQQWNSKPPTFGSGTKLEIK |  |  |  | binds | binds | 
anti-GPRC5D chimeric antibody 4B1 (antibody, V domains shown) VH: QAYLQQSGAELVRSGASVKMSCKASGYTFTSYNMHWVKQTPGQGLEWIGYIYPGNGGTNYNQNFKGKATLTADTSSSTAYMQISSLTSEDSAVYFCARGYGYRYWYFDVWGAGTTVTVSS VL: QIVLTQSPAIMSASPGEKVTMTCSASSSVSYMHWYQQKSGTSPKRWIYDTSKLASGVPVRFSGSGSGTSYSLTISSMEAEDAATYYCQQWSNYPPTFGSGTKLEIK |  |  |  |  | binds | ~0.6 nM
anti-GPRC5D chimeric antibody 15D1 (antibody, V domains shown) VH: EVQLQQSGPELGKPGASVKMSCKASGYTFTNYVMHWVKQKPGQGLEWIGYINPYNDGTKYNEKFKGKATLTSDKSSNTAYMELSSLTSEDSAVYYCARGGVRRYFDYWGQGTTLTVSS VL: DIQMTQSPSSLSASLGERVSLTCRASQDIGSNLNWLQQEPDGTIKRLIYATSSLDSGVPKRFSGSRSGSDYSLTISSLESEDFVDYYCLQYASFPYTFGGGTKLEIK |  |  |  |  | binds | ~0.1 nM
